This note sets out measurements from patent publication US10555963B2, “Klotho protein and related compounds for the treatment and diagnosis of cancer” (TEL HASHOMER MEDICAL RESEARCH INFRASTRUCTURE AND SERVICES …, priority 2007, dated 2020).

For one assay, the system named is Panc1 cells. As to the kind of experiment: In vivo Panc1 tumors in athymic nude mice treated with soluble klotho protein. Particulars: 200 ng/day, 500 ng/day daily intra-peritoneal, up to 4 weeks. On the procedure: Panc1 cells were harvested, washed twice with sterile PBS, counted and resuspended in Matrigel (BD Biosciences). Six-week-old female athymic nude mice were injected subcutaneously in both flanks with cells at a density of 0.5×10^6 cells/100 μl. The mice were treated with daily intra-peritoneal injections of either soluble klotho protein (prepared as described above): 200 ng/day, 500 ng/day, or vehicle control (saline). Five mice were used in each group. Tumor size was measured weekly with a linear caliper for up to 4 weeks, and tumor volume was estimated using the equation V=(a×b^2)×0.5236, where “a” is the larger dimension and “b” the perpendicular diameter.

A further assay concerns the target T1, IGF-1R (Homo sapiens, UniProt P08069).
T1 construct: endogenous in cells; host or cells: MCF-7 cells expressing HA-klotho (stably or transiently)
As to the kind of experiment: Co-immunoprecipitation of HA-klotho protein and IGF-1R in MCF-7 cells. It counts as binding. Particulars: MCF-7 cells expressing HA-klotho protein. The method, then:
Cells were harvested as for Western blot, and 400 μg protein lysate were incubated with IgG-Sepharose (Sigma) or protein A/G (Pierce, Rockford, Ill.) beads at 4° C. for 1 h to eliminate non-specifically bound proteins. These beads were subsequently used as a negative control. The supernatants were then incubated for 4 hours with either 2 μg anti-HA antibody (Sigma) or 2 μl of anti-IGF-1β-R (Santa Cruz Biotechnology) and IgG-Sepharose or protein A/G (Pierce, Rockford, Ill.), respectively, was added. Following an overnight incubation, the beads were washed 6 times in RIPA buffer and the immunoprecipitated materials were separated by SDS-PAGE and detected by Western blotting.
As klotho protein can bind FGFR and other membrane proteins, binding of klotho protein to the IGF-1R was examined. Co-immunoprecipitation assays were conducted using MCF-7 cells either stably (FIG. 10) or transiently (data not shown) expressing HA-klotho protein. HA-klotho protein was detected by Western blotting following immunoprecipitation of the IGF-1R, and the IGF-1R was detected following immunoprecipitation using HA-directed antibody.

For assay [1], the system named is IGF-1 pathway in MCF-7 cells. As to the kind of experiment: IGF-1 pathway activation (Western blotting) after klotho protein over-expression. It is filed as cell-based, human. Particulars: IGF-1 12.5 nM, 15 min. On the procedure:
For breast cells, cells were harvested and lysed for total protein extraction in RIPA buffer (50 mM Tris-Cl pH 7.4, 150 mM NaCl, 1% NP-40, 0.25% Na-deoxycholate, 1 mM EDTA, 1 mM NaF) together with a protease inhibitor cocktail (Sigma). 50 μg protein extracts were loaded on 10% polyacrylamide gels, separated electrophoretically and blotted from the gel onto nitrocellulose membrane (Schleicher & Schuell Bioscience GmbH, Dassel, D E). The membranes were then immunoblotted with the indicated antibodies.
MDA-MB-231 cells, which express lower levels of these receptors, were also examined. HEK 293 cells, whose growth is not dependent on the IGF-1 pathway (El-Shewy et al., 2007) and is not inhibited by klotho protein, served as control.
In order to elucidate klotho protein activity as an inhibitor of […] activation, MCF-7 cells were transfected with either pcDNA3-HA-KL or an empty vector, starved for 48 hours, treated with IGF-1 for the indicated times and doses, and analyzed using Western blotting for the level of expression and phosphorylation of IGF-1R.
(§1) In further experiments, MCF-7, MDA-MB-231 or HEK-293 cells were transfected with either pcDNA3-HA-KL or empty vector and treated with IGF-1 (12.5 nM, 15 min).
(Immunoblotting shows a protein as a band on a membrane.)

For the next assay, the system named is MCF-7. The assay is described as follows: Colony formation assay after transfection with klotho protein expression vector. Particulars: transfected pcDNA3-HA-KL vs empty vector; G418 two weeks; p<0.0005. It counts as cell-based, human. On the procedure:
(§2) Two days following transfection with the indicated plasmids, G418 (750 μg/ml) was added to the culture media; and at day 14, the cells were stained using gentian violet. Untransfected cells were treated similarly, and all died within the 2 weeks of culture in the selection media. Quantification of the results was performed using AlphaImager 2000 (Alpha Innotech, CA).
(§3) The effect of klotho protein on growth of breast cancer cells was first assessed using colony formation assays. MCF-7, MDA-MB-231 and the non-cancerous human embryonic kidney (HEK) 293 cells were transfected with either a HA-tagged klotho protein expression vector (pcDNA3-HI-A-KL) or an empty vector (pcDNA3). Transfected cells were cultured in media containing G418 for two weeks and stained to determine the number of surviving colonies.

In another assay the test system is MDA-MB-231. Described as above. It counts as cell-based, human. Particulars: transfected pcDNA3-HA-KL vs empty vector; G418 two weeks; p<0.0005. On the procedure:
as §2, §3

Assay [2] has as its system insulin pathway in MCF-7 cells. The assay is described as follows: Insulin pathway activation after klotho protein over-expression. Particulars: insulin stimulation. It counts as cell-based, human.
For assay [3], the system named is EGF pathway in MCF-7, MDA-MB-231 and HEK293 cells. The assay is described as follows: EGF pathway (ERK1/2) after klotho protein over-expression. It counts as cell-based, human. Particulars: starved 48 hours. The method, then: The effects of over-expression of klotho protein on the insulin-stimulated pathway were also examined. The EGF pathway, which plays an important role in the pathogenesis of breast cancer, is not modulated by klotho protein in either L6 or H411E cells (Kurosu et al., 2005). In order to evaluate the effects of klotho protein on this pathway in MCF-7, MDA-MB-231 and HEK293 breast cancer cells, these cells were transfected with either pcDNA3-HA-KL or an empty vector, starved for 48 hours, treated with EGF, and analyzed for the expression and activity of the ERK1/2, which are downstream targets of the EGF pathway.

In assay [4] the test system is MCF-7 and MDA-MB-231 clones. As to the kind of experiment: MTT proliferation assay of clones stably expressing klotho protein. It counts as cell-based, human. Particulars: stable klotho protein-expressing clones vs pcDNA3 controls; 24-72 h. On the procedure:
The medium was aspirated, and the cells were dissolved by dimethyl sulfoxide (DMSO).
In order to assess the long-term effects of klotho protein expression, MCF-7 and MDA-MB-231 clones, which stably expressed either pcDNA3 or pcDNA3-HA-KL, were generated. Proliferation was evaluated by 3-(4,5-dimethylthiazol-2-yl)-2,5-diphenyltetrazolium bromide (MTT) assay after seeding for 24-72 h.
In general terms: Formazan colour is commonly taken as a measure of viable cells.

In assay [5] the test system is human embryonic kidney (HEK) 293 cells. As to the kind of experiment: Colony formation assay after transfection with klotho protein expression vector. It is filed as cell-based. Particulars: transfected pcDNA3-HA-KL vs empty vector. The method, then:
as §2, §3

The subject of the next assay is C/EBPβ in MCF-7 cells. As to the kind of experiment: C/EBPβ levels after klotho protein over-expression. It is filed as cell-based, human. Particulars: over-expression vs empty vector. On the procedure: as §1
C/EBPβ is a down-stream target of the GSK3β pathway, which is suppressed following stimulation by IGF-1 (Li et al., 2007). […] The effects of over-expression of klotho protein on C/EBPβ levels were therefore analyzed.

T1 sequence (P08069 31-1367): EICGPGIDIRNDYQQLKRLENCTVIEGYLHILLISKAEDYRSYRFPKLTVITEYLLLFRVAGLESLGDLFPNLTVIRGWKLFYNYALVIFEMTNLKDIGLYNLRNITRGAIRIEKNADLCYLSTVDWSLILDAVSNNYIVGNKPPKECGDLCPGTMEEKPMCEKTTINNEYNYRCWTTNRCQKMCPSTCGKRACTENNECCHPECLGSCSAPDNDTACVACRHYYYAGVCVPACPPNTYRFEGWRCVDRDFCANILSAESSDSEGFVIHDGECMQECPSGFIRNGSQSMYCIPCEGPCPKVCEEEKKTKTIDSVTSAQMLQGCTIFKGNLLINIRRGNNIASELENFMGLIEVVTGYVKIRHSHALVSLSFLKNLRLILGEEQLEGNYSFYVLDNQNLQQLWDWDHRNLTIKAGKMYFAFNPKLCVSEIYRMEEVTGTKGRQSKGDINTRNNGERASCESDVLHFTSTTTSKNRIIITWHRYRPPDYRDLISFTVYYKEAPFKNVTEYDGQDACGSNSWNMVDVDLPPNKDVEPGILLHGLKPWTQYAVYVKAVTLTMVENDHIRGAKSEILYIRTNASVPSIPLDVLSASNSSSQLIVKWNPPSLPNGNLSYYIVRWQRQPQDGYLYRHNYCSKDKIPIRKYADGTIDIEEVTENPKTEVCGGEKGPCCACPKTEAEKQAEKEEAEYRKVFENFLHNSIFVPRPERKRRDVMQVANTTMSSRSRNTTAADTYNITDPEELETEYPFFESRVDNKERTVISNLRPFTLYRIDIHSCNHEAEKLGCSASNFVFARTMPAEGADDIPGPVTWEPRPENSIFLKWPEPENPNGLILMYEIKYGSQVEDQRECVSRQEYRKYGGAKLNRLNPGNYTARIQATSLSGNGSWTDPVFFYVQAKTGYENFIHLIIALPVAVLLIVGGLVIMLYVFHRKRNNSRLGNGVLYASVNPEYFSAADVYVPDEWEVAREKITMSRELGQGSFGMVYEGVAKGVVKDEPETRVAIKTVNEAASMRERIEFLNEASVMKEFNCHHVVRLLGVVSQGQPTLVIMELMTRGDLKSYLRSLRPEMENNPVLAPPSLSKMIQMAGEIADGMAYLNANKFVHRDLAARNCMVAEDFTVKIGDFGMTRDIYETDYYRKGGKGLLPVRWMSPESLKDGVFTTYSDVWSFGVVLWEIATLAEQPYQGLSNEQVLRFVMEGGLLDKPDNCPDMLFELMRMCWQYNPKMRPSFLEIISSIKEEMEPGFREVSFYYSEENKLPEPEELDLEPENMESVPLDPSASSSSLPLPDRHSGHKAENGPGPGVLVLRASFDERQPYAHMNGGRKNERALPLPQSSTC

B1: klotho protein: full length mouse Klotho (SEQ ID NO. 3) over-expressed in cells from HA-tagged expression vector pcDNA3-HA-KL (protein)
chain: MLARAPPRRPPRLVLLRLLLLHLLLLALRARCLSAEPGQGAQTWARFARAPAPEAAGLLHDTFPDGFLWAVGSAAYQTEGGWRQHGKGASIWDTFTHHSGAAPSDSPIVVAPSGAPSPPLSSTGDVASDSYNNVYRDTEGLRELGVTHYRFSISWARVLPNGTAGTPNREGLRYYRRLLERLRELGVQPVVTLYHWDLPQRLQDTYGGWANRALADHFRDYAELCFRHFGGQVKYWITIDNPYVVAWHGYATGRLAPGVRGSSRLGYLVAHNLLLAHAKVWHLYNTSFRPTQGGRVSIALSSHWINPRRMTDYNIRECQKSLDFVLGWFAKPIFIDGDYPESMKNNLSSLLPDFTESEKRLIRGTADFFALSFGPTLSFQLLDPNMKFRQLESPNLRQLLSWIDLEYNHPPIFIVENGWFVSGTTKRDDAKYMYYLKKFIMETLKAIRLDGVDVIGYTAWSLMDGFEWHRGYSIRRGLFYVDFLSQDKELLPKSSALFYQKLIEDNGFPPLPENQPLEGTFPCDFAWGVVDNYVQVDTTLSQFTDPNVYLWDVHHSKRLIKVDGVVAKKRKPYCVDFSAIRPQITLLREMRVTHFRFSLDWALILPLGNQTQVNHTVLHFYRCMISELVHANITPVVALWQPAAPHQGLPHALAKHGAWENPHTALAFADYANLCFKELGHWVNLWITMNEPNTRNMTYRAGHHLLRAHALAWHLYDDKFRAAQKGKISIALQADWIEPACPFSQNDKEVAERVLEFDIGWLAEPIFGSGDYPRVMRDWLNQKNNFLLPYFTEDEKKLVRGSFDFLAVSHYTTILVDWEKEDPMKYNDYLEVQEMTDITWLNSPSQVAVVPWGLRKVLNWLRFKYGDLPMYVTANGIDDDPHAEQDSLRIYYIKNYVNEALKAYVLDDINLCGYFAYSLSDRSAPKSGFYRYAANQFEPKPSMKHYRRIIDSNGFLGSGTLGRFCPEEYTVCTECGFFQTRKSLLVFISFLVFTFIISLALIFHYSKKGQRSYK
modifications: HA tag
For the molecule B1, in the assay with Panc1 cells, the “tumor growth (tumor size)” value is listed as “significant dose-response arrest of tumor growth”. In addition, the “interaction with the IGF-1 receptor (co-immunoprecipitation)” value with IGF-1R is on record as “interaction”. For the same molecule, the “phosphorylation of IGF-1R, IRS-1, AKT1, GSK3β, ERK-1 and -2” value in [1] is “reduced phosphorylation”. In addition, the “reduction of number and size of surviving colonies” value in the assay with MCF-7 came to 84%; with MDA-MB-231, 72%. Further, the “activation of the insulin pathway” value in [2] is “inhibited”. Also, the “expression and phosphorylation of ERK1/2 after EGF” value in [3] is “affected neither the expression nor phosphorylation”. The “proliferation slower than controls (MTT assay)” value in assay [4] was “up to 6 fold”. The “effect on HEK 293 growth (colony assay)” value in assay [5] is “no effect”. For the same molecule, in the assay with C/EBPβ in MCF-7 cells, the C/EBPβ levels entry is listed as “significant up-regulation”.
